Results reported in the supplement of paper PMC6755084.

B1: F1*; the commonest letter at each place (parent)
chain: GAGACCGCAACTGAAAAGTTGTTATCACTTGTCGTAAGACACTTTGGATGGGTTGAAGTTCTGCACGTAGAAGCAAAAGGC

Variants of: B1
Assay: fraction ligated after 30 min (ligated reads / total reads); higher = more ligase activity
Conditions: with F1*sub RNA substrate (template-directed ligation), 42 °C
Outline: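 Ribozyme variants were transcribed with T7 from PCR-amplified oligo-pool templates and gel-purified. Ligated and unligated bands, separated on gel, were reverse transcribed with barcoded primers and sequenced on a MiSeq, with core bases filtered at quality ≥20. Fraction ligated per variant was computed as ligated reads divided by total reads.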

Variant | fraction ligated
GAGACCGCAACTGAAAAGTTGTTATCACTTGTAGTAAGACACTTTAGATGGGTTGAAGTTCTGCACGTAGAAGCAAAAGGC | 0.84
GAGACCGCAACTGAAAAGTTGTTATCACTTGTAGTAAGACACTTTCGATGGGTTGAAGTTCTGCACGTAGAAGCAAAAGGC | 0.797
GAGACCGCAACTGAAAAGTTGTTATCACTTGTAGTAAGACACTTTTGATGGGTTGAAGTTCTGCACGTAGAAGCAAAAGGC | 0.803
GAGACCGCAACTGAAAAGTTGTTATCACTTGTAGTAAGACACTTTGAATGGGTTGAAGTTCTGCACGTAGAAGCAAAAGGC | 0.745
GAGACCGCAACTGAAAAGTTGTTATCACTTGTAGTAAGACACTTTGCATGGGTTGAAGTTCTGCACGTAGAAGCAAAAGGC | 0.109
GAGACCGCAACTGAAAAGTTGTTATCACTTGTAGTAAGACACTTTGTATGGGTTGAAGTTCTGCACGTAGAAGCAAAAGGC | 0.219
GAGACCGCAACTGAAAAGTTGTTATCACTTGTAGTAAGACACTTTGGATAGGTTGAAGTTCTGCACGTAGAAGCAAAAGGC | 0.343
GAGACCGCAACTGAAAAGTTGTTATCACTTGTAGTAAGACACTTTGGATCGGTTGAAGTTCTGCACGTAGAAGCAAAAGGC | 0.0908
GAGACCGCAACTGAAAAGTTGTTATCACTTGTAGTAAGACACTTTGGATTGGTTGAAGTTCTGCACGTAGAAGCAAAAGGC | 0.627
GAGACCGCAACTGAAAAGTTGTTATCACTTGTAGTAAGACACTTTGGATGGGTTAAAGTTCTGCACGTAGAAGCAAAAGGC | 0.84
GAGACCGCAACTGAAAAGTTGTTATCACTTGTAGTAAGACACTTTGGATGGGTTCAAGTTCTGCACGTAGAAGCAAAAGGC | 0.77
GAGACCGCAACTGAAAAGTTGTTATCACTTGTAGTAAGACACTTTGGATGGGTTTAAGTTCTGCACGTAGAAGCAAAAGGC | 0.809
GAGACCGCAACTGAAAAGTTGTTATCACTTGTAGAAAGACACTTTGGATGGGTTGAAGTTCTGCACGTAGAAGCAAAAGGC | 0.879
GAGACCGCAACTGAAAAGTTGTTATCACTTGTAGCAAGACACTTTGGATGGGTTGAAGTTCTGCACGTAGAAGCAAAAGGC | 0.85
GAGACCGCAACTGAAAAGTTGTTATCACTTGTAGGAAGACACTTTGGATGGGTTGAAGTTCTGCACGTAGAAGCAAAAGGC | 0.866
GAGACCGCAACTGAAAAGTTGTTATCACTTGTAGTAAGACACATTGGATGGGTTGAAGTTCTGCACGTAGAAGCAAAAGGC | 0.83
GAGACCGCAACTGAAAAGTTGTTATCACTTGTAGTAAGACACCTTGGATGGGTTGAAGTTCTGCACGTAGAAGCAAAAGGC | 0.834

Variant | fraction ligated
GAGACCGCAACTGAAAAGTTGTTATCACTTGTAGTAAGACACGTTGGATGGGTTGAAGTTCTGCACGTAGAAGCAAAAGGC | 0.799
GAGACCGCAACTGAAAAGTTGTTATCACTTGTAGTAAGACACTATGGATGGGTTGAAGTTCTGCACGTAGAAGCAAAAGGC | 0.805
GAGACCGCAACTGAAAAGTTGTTATCACTTGTAGTAAGACACTCTGGATGGGTTGAAGTTCTGCACGTAGAAGCAAAAGGC | 0.84
GAGACCGCAACTGAAAAGTTGTTATCACTTGTAGTAAGACACTGTGGATGGGTTGAAGTTCTGCACGTAGAAGCAAAAGGC | 0.821
GAGACCGCAACTGAAAAGTTGTTATCACTTGTAGTAAGACACTTAGGATGGGTTGAAGTTCTGCACGTAGAAGCAAAAGGC | 0.803
GAGACCGCAACTGAAAAGTTGTTATCACTTGTAGTAAGACACTTCGGATGGGTTGAAGTTCTGCACGTAGAAGCAAAAGGC | 0.53
GAGACCGCAACTGAAAAGTTGTTATCACTTGTAGTAAGACACTTGGGATGGGTTGAAGTTCTGCACGTAGAAGCAAAAGGC | 0.0419
GAGACCGCAACTGAAAAGTTGTTATCACTTGTAGTAAGACACTTTGGAAGGGTTGAAGTTCTGCACGTAGAAGCAAAAGGC | 0.725
GAGACCGCAACTGAAAAGTTGTTATCACTTGTAGTAAGACACTTTGGACGGGTTGAAGTTCTGCACGTAGAAGCAAAAGGC | 0.37
GAGACCGCAACTGAAAAGTTGTTATCACTTGTAGTAAGACACTTTGGAGGGGTTGAAGTTCTGCACGTAGAAGCAAAAGGC | 0.739
GAGACCGCAACTGAAAAGTTGTTATCACTTGTGGTAAGACACTTTGGATGGGTTGAAGTTCTGCACGTAGAAGCAAAAGGC | 0.831
GAGACCGCAACTGAAAAGTTGTTATCACTTGTGGTCAGACACTTTGGATGGGTTGAAGTTCTGCACGTAGAAGCAAAAGGC | 0.796
GAGACCGCAACTGAAAAGTTGTTATCACTTGTGGTGAGACACTTTGGATGGGTTGAAGTTCTGCACGTAGAAGCAAAAGGC | 0.821
GAGACCGCAACTGAAAAGTTGTTATCACTTGTGGTTAGACACTTTGGATGGGTTGAAGTTCTGCACGTAGAAGCAAAAGGC | 0.825
GAGACCGCAACTGAAAAGTTGTTATCACTTGTGGTACGACACTTTGGATGGGTTGAAGTTCTGCACGTAGAAGCAAAAGGC | 0.824
GAGACCGCAACTGAAAAGTTGTTATCACTTGTGGTAGGACACTTTGGATGGGTTGAAGTTCTGCACGTAGAAGCAAAAGGC | 0.847
GAGACCGCAACTGAAAAGTTGTTATCACTTGTGGTATGACACTTTGGATGGGTTGAAGTTCTGCACGTAGAAGCAAAAGGC | 0.853
